Numbering of substitutions follows the chain as printed. In names and notes the source's numbering stands.
Substrate: Nc1ncnc2c1ncn2[C@@H]1O[C@H](COP(=O)(O)OP(=O)(O)OP(=O)(O)O)[C@@H](O)[C@H]1O
Test: purified protein
Assay type: biochemical, Homo sapiens
Details: Mg2+ ATP binding site

B1: hCINAP (Homo sapiens) (protein)
chain: MLLPNILLTGTPGVGKTTLGKELASKSGLKYINVGDLAREEQLYDGYDEEYDCPILDEDRVVDELDNQMREGGVIVDYHGCDFFPERWFHIVFVLRTDTNVLYERLETRGYNEKKLTDNIQCEIFQVLYEEATASYKEEIVHQLPSNKPEELENNVDQILKWIEQWIKDHNS
- Km: 45 ± 5 µM
- kcat/Km: 140 M⁻¹ s⁻¹

B2: hCINAP-H79G (Homo sapiens; H79G) (protein)
chain: B1 chain with H79G
- Km: 93 ± 8 µM
